Laboratory results reported in article PMC6768288, “Biochemical and structural characterization of tyrosine aminotransferase suggests broad substrate specificity and a two‐state folding mechanism in Leishmania donovani” (FEBS Open Bio, 2019).

Experiments:
Assay in all cases: purified protein
Format in all cases: biochemical, Leishmania donovani
[1] = substrate: N[C@@H](Cc1ccccc1)C(=O)O; conditions: co-substrate sodium pyruvate 100 mM; Phe 0-7 mM; PLP 30 μM, 37 °C
[2] = substrate: CC(=O)C(=O)O; conditions: co-substrate Tyr 4 mM; sodium pyruvate 0-200 mM; PLP 30 μM, 37 °C
[3] = substrate: N[C@@H](Cc1ccc(O)cc1)C(=O)O; conditions: co-substrate sodium pyruvate 100 mM; Tyr 0-7 mM; PLP 30 μM, 37 °C
[4] = substrate: Cc1ncc(COP(=O)(O)O)c(C=O)c1O; conditions: tyrosine-sodium pyruvate as substrates; covalent internal aldimine with K286; varied: cofactor
[5] = substrate: CSCCC(=O)C(=O)O; conditions: co-substrate Tyr 4 mM; KMB 0-4.5 μM; PLP 30 μM, 37 °C
[6] = substrate: N[C@@H](Cc1c[nH]c2ccccc12)C(=O)O; conditions: co-substrate sodium pyruvate 100 mM; Trp 0-7 mM; PLP 30 μM, 37 °C

B1: LdTAT (Leishmania donovani) (protein)
chain: MTIDTQAAPAAQTLKAGNATGSLTEERREVEQQRAAENTSFRRIASSKHAQRTLQPLNNLTDNMKPSRSTKSNLRLSIGDPTVDGNLKTPDIVTEAMVDIVRSGKFNGYPPTVGADNLRQVVSTYWRRFCQTKSRQEALKWENVIITSGVSQAIVLALTALCNEGDNILVCAPSFPHYKSVCDSYGIECRYYYLDPSKSWECDLRAAAGMVDSHTKAFVIINPSNPCGSNFSRAHVSDIIDFCQQHQIPLISDEIYAEMVLNNGIFTSVADFDTNVPRLILGGTAKYQVCPGWRVGWSILIDPMNVAGDWAVGMERLTQLIAGVNSICQEAIARTLLKCPAECTEHIVTQLEAGAKVYARLLEHDIGISMEAPQASMFVMLKLNLSYFQDLKSDMEFYEKLLDEENVQVLPGEIFGMSGFLRATVSRPSAVLNEAVDRIIEFCERHKK
notes: full-length ORF 1347 bp (448 residues from ORF length) amplified from L. donovani genomic DNA; pET28a(+) BamHI/HindIII, His-tagged, E. coli BL21, Ni-NTA
[1]
  Km: 3.752 ± 0.96 mM
  Vmax: 19800 µM/min/mg
[2]
  Km: 42.67 ± 0.38 mM
  Vmax: 8600 µM/min/mg
[3]
  Km: 3.5 ± 0.90 mM
  Vmax: 11700 µM/min/mg
[4]
  Km: 0.02359 ± 0.00399 mM
[5]
  Km: 0.0008103 ± 0.00011 mM
  Vmax: 1850 µM/min/mg
[6]
  Km: 5.055 ± 0.42 mM
  Vmax: 19900 µM/min/mg
